This is an account of results in patent US20230038638A1, “COMPLEMENT FACTOR I-RELATED COMPOSITIONS AND METHODS” (published 2023).

Test [1] addresses T1, human C4b (human) (UniProt P0C0L4).
T1 sequence: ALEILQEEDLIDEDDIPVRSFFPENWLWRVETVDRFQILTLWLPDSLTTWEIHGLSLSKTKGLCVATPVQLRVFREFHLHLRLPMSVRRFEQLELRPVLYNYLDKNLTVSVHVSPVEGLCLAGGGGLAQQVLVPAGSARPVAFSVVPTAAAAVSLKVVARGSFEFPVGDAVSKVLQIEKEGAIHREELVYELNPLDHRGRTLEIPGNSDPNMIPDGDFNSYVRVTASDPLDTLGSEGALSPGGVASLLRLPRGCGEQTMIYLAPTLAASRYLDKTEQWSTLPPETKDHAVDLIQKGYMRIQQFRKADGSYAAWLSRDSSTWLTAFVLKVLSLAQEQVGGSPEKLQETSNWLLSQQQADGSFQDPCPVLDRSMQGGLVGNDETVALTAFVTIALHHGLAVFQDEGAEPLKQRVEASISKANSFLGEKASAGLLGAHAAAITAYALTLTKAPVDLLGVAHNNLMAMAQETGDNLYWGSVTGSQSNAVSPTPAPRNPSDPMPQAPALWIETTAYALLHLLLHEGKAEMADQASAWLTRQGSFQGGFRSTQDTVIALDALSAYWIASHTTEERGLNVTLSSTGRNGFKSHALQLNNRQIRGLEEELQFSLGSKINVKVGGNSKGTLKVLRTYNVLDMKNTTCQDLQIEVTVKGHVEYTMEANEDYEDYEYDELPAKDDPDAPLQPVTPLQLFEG

The target in test [2] is soluble human C3b (human) (UniProt P01024).
Test [3] addresses T1, human C4b (human). This is another data set of the same source.
In test [4] the target is T2, human C4b (human) (UniProt P0C0L5).
T2 sequence: T1 sequence with A151T, D317G, P364L, C365S, L368I, D369H, N420S, V451A, L454R, S530A

Positions count from the first letter of the chain named. “And” between values parts separate entries of the source, which are not always exact repeats. Identical values can stand only once. A value given as a limit tells only on which side of the number the result lay.

As to “CFI-HSA variant E416A; E457G; E461Q; F464Y; N531G (enzyme)”, the C4b Screen Ref Fold (fold of CFI-HSA wild type) in test [1] was determined as 4.74. For the same substance, the iC3b Screen Ref Fold (fold of CFI-HSA wild type) in test [2] was 1.79. This substance also displayed a C4c EC50 (nM) in test [3] of 12 nM.

For “CFI-HSA variant E457G; E461Q; E530F; N531G; P558S (enzyme)”, in test [1], the C4b Screen Ref Fold (fold of CFI-HSA wild type) is 4.57 and 4.37. Also, the iC3b Screen Ref Fold (fold of CFI-HSA wild type) in test [2] was 1.37 and 1.5. Moreover, the C4c EC50 (nM) in test [3] was 17.8 nM.

Turning to “CFI-HSA variant E457G; E461Q; F464Y; E530Y; N531G; P558S (enzyme)”, the C4b Screen Ref Fold (fold of CFI-HSA wild type) in test [1] came out at 4.03. The iC3b Screen Ref Fold (fold of CFI-HSA wild type) in test [2] was 2.44. Also, in test [3], the C4c EC50 (nM) was found to be 32.4 nM.

Turning to “CFI-HSA variant E457G; E461Q; F464Y; N531G; R557K (enzyme)”, in test [1], the C4b Screen Ref Fold (fold of CFI-HSA wild type) came to 4.54. In addition, in test [2], the iC3b Screen Ref Fold (fold of CFI-HSA wild type) is 2.17. In addition, the C4c EC50 (nM) in test [3] came to 10.6 nM.

In the case of “CFI-HSA variant E457G; E461Q; K504H; N531G (enzyme)”, the C4b Screen Ref Fold (fold of CFI-HSA wild type) in test [1] was determined as 3.91. Also, the iC3b Screen Ref Fold (fold of CFI-HSA wild type) in test [2] was determined as 1.2. Besides, in test [3], the C4c EC50 (nM) came out at 39 nM.

“CFI-HSA variant E457G; E461Q; R462K; F464Y; E530Y; N531G; P558S (enzyme)” showed a C4b Screen Ref Fold (fold of CFI-HSA wild type) in test [1] of 4.51. The iC3b Screen Ref Fold (fold of CFI-HSA wild type) in test [2] came out at 2.69. Besides, in test [3], the C4c EC50 (nM) turned out to be 30 nM.

The substance “CFI-HSA variant E457G; E461Q; R462K; F464Y; K504H; N531G (enzyme)” returned a C4b Screen Ref Fold (fold of CFI-HSA wild type) in test [1] of 4.01. Besides, the iC3b Screen Ref Fold (fold of CFI-HSA wild type) in test [2] is 2. Moreover, the C4c EC50 (nM) in test [3] was 51.7 nM.

Take “CFI-HSA variant E457G; E461Q; R462K; F464Y; N531G; R557K (enzyme)”: in test [1], the C4b Screen Ref Fold (fold of CFI-HSA wild type) was 4.47. In addition, the iC3b Screen Ref Fold (fold of CFI-HSA wild type) in test [2] was 1.49. This substance had a C4c EC50 (nM) in test [3] of 12.4 nM.

As to CFI-HSA variant E457P (enzyme), in test [1], the C4b Screen Ref Fold (fold of reference) was found to be 0.01. Moreover, in test [2], the iC3b Screen Ref Fold (fold of reference) turned out to be 0.07. In test [3], this substance showed a C4c EC50 (nM) of more than 1000 nM.

Consider CFI-HSA variant E461T (enzyme), for which the C4b Screen Ref Fold (fold of reference) in test [1] is 3.24. In addition, the iC3b Screen Ref Fold (fold of reference) in test [2] is 1.53. For the same substance, the C4c EC50 (nM) in test [3] is 125 nM.

In the case of CFI-HSA variant G406D; N531G (enzyme), in test [1], the C4b Screen Ref Fold (fold of reference) amounted to 6.15. Besides, the iC3b Screen Ref Fold (fold of reference) in test [2] was 0.83. This substance displayed a C4c EC50 in test [3] of 124 nM.

In the case of “CFI-HSA variant G406D; N531G; P535A (enzyme)”, the C4b Screen Ref Fold (fold of reference) in test [1] was found to be 5.98. For the same substance, in test [2], the iC3b Screen Ref Fold (fold of reference) turned out to be 0.88. The same substance showed a C4c EC50 in test [3] of 129 nM.

As for “CFI-HSA variant G406D; Y408L; N531G (enzyme)”, the C4b Screen Ref Fold (fold of reference) in test [1] turned out to be 5.16. In addition, the iC3b Screen Ref Fold (fold of reference) in test [2] is 0.93. Besides, in test [3], the C4c EC50 was 178 nM.

Consider “CFI-HSA variant G406D; Y408L; N531G; P535A (enzyme)”, for which the C4b Screen Ref Fold (fold of reference) in test [1] was 5.44. For the same substance, in test [2], the iC3b Screen Ref Fold (fold of reference) was found to be 0.96. For the same substance, the C4c EC50 in test [3] stood at 102 nM.

As to CFI-HSA variant G406K (enzyme), the C4b Screen Ref Fold (fold of reference) in test [1] was 0.77. In addition, in test [2], the iC3b Screen Ref Fold (fold of reference) is 1.28. Further, the C4c EC50 in test [3] was found to be 183 nM.

As for “CFI-HSA variant K14A; Y20F; D26A; R35A; E38A; L304G; P305G; K306G; L307G; S308G (enzyme)”, the C4b Screen Ref Fold (fold of reference) in test [1] came out at 4.19. Besides, the iC3b Screen Ref Fold (fold of reference) in test [2] was determined as 0.04. The same substance gave a C4c EC50 (nM) in test [3] of more than 1000 nM.

Take CFI-HSA variant N531D (enzyme): the C4b Screen Ref Fold (fold of reference) in test [1] was determined as 4.91. The iC3b Screen Ref Fold (fold of reference) in test [2] worked out at 1.52. Besides, in test [3], the C4c EC50 (nM) is 77.2 nM.

Regarding CFI-HSA variant N531F (enzyme), the C4b Screen Ref Fold (fold of reference) in test [1] stood at 1.98. For the same substance, the iC3b Screen Ref Fold (fold of reference) in test [2] turned out to be 1.09. The substance further returned a C4c EC50 (nM) in test [3] of 183 nM.

On to CFI-HSA variant N531Q (enzyme), for which, in test [1], the C4b Screen Ref Fold (fold of reference) amounted to 3.46. Also, the iC3b Screen Ref Fold (fold of reference) in test [2] was 0.69. The substance also came in with a C4c EC50 (nM) in test [3] of 310 nM.

For CFI-HSA variant N531S (enzyme), in test [1], the C4b Screen Ref Fold (fold of reference) stood at 2.21. Also, in test [2], the iC3b Screen Ref Fold (fold of reference) was 1.16. Moreover, in test [3], the C4c EC50 (nM) is 176 nM.

On to “CFI-HSA variant T346R; Y408L; N531G (enzyme)”, for which the C4b Screen Ref Fold (fold of reference) in test [1] is 3.42. In addition, the iC3b Screen Ref Fold (fold of reference) in test [2] came to 0.93. In test [3], this substance gave a C4c EC50 of 204 nM.

Turning to “CFI-HSA variant Y408F; E416A; E457G; E461Q; R462K; N531G (enzyme)”, the C4b Screen Ref Fold (fold of CFI-HSA wild type) in test [1] stood at 4.51. Also, the iC3b Screen Ref Fold (fold of CFI-HSA wild type) in test [2] was 1.99. In addition, in test [3], the C4c EC50 (nM) is 11.5 nM.

For “CFI-HSA variant Y408F; E457G; E461Q; F464Y; N531G (enzyme)”, the C4b Screen Ref Fold (fold of CFI-HSA wild type) in test [1] is 4.43. In addition, the iC3b Screen Ref Fold (fold of CFI-HSA wild type) in test [2] is 1.81. The substance further displayed a C4c EC50 (nM) in test [3] of 15.1 nM.

In the case of “CFI-HSA variant Y408L; N531G; E461Q; R462K; F464Y (enzyme)”, the C4b Screen Ref Fold (fold vs CFI-HSA wild type) in test [4] stood at 5.97. Besides, in test [2], the iC3b Screen Ref Fold (fold vs CFI-HSA wild type) turned out to be 0.92. Besides, the C4c EC50 (nM) in test [3] stood at 82.7 nM.

Turning to “CFI-HSA variant Y408L; N531G; K534Q (enzyme)”, the C4b Screen Ref Fold (fold of CFI-HSA wild type) in test [4] is 5.13. Besides, the iC3b Screen Ref Fold (fold of CFI-HSA wild type) in test [2] is 1.03. The C4c EC50 in test [3] was found to be 64.3 nM.

The substance “CFI-HSA variant Y408L; N531G; N422K (enzyme)” had a C4b Screen Ref Fold (fold of CFI-HSA wild type) in test [4] of 3.78. Moreover, the iC3b Screen Ref Fold (fold of CFI-HSA wild type) in test [2] was 1.94. For the same substance, the C4c EC50 in test [3] came out at 83.7 nM.

For the substance “CFI-HSA variant Y408L; N531G; P535A (enzyme)”, the C4b Screen Ref Fold (fold vs CFI-HSA wild type) in test [4] turned out to be 5.22. For the same substance, the iC3b Screen Ref Fold (fold vs CFI-HSA wild type) in test [2] worked out at 1.02. The C4c EC50 (nM) in test [3] was found to be 118 nM.

Substance “CFI-HSA variant Y408L; N531G; P535G; D425K (enzyme)” registered a C4b Screen Ref Fold (fold of CFI-HSA wild type) in test [4] of 2.94. The iC3b Screen Ref Fold (fold of CFI-HSA wild type) in test [2] came out at 1.38. In test [3], this substance showed a C4c EC50 of 65.4 nM.

As to “CFI-HSA variant Y408L; N531G; P558S (enzyme)”, the C4b Screen Ref Fold (fold of CFI-HSA wild type) in test [4] was 5.11. Further, the iC3b Screen Ref Fold (fold of CFI-HSA wild type) in test [2] is 1.05. Moreover, in test [3], the C4c EC50 is 77.5 nM.

Regarding CFI-HSA variant Y408P (enzyme), in test [4], the C4b Screen Ref Fold (fold vs CFI-HSA wild type) is -0.01. Also, the iC3b Screen Ref Fold (fold vs CFI-HSA wild type) in test [2] was 0.02. In test [3], the C4c EC50 (nM) was determined as 338 nM.

Regarding CFI-HSA variant Y553H (enzyme), the C4b Screen Ref Fold (fold of CFI-HSA wild type) in test [4] amounted to 4.13. Besides, the iC3b Screen Ref Fold (fold of CFI-HSA wild type) in test [2] was 0.52. In test [3], the C4c EC50 was determined as 85.5 nM and the C4c EC50 (nM) stood at 166 nM.

CFI-HSA variant Y553H; P558S (enzyme) registered a C4b Screen Ref Fold (fold of CFI-HSA wild type) in test [4] of 2.14. In addition, the iC3b Screen Ref Fold (fold of CFI-HSA wild type) in test [2] turned out to be 0.63. The C4c EC50 in test [3] was determined as 122 nM.

Consider “WT; GGSSGG (SEQ ID NO: 6); CR1(ccp15-17); GGSSGG (SEQ ID NO: 6); fH(ccp1-4) (enzyme)”, for which the C4b Screen Ref Fold (fold vs CFI-HSA wild type) in test [4] was 2.96. In addition, the iC3b Screen Ref Fold (fold vs CFI-HSA wild type) in test [2] was determined as 0.08. Also, in test [3], the C4c EC50 (nM) is 60.3 nM.
